Target: VSV L protein (wild type, rVSV) (Vesicular stomatitis Indiana virus) (UniProt P03523)
Conditions: 5' Gppp cap (7mGpppAm when fully methylated)

Chain of UniProt P03523 (P03523 whole entry): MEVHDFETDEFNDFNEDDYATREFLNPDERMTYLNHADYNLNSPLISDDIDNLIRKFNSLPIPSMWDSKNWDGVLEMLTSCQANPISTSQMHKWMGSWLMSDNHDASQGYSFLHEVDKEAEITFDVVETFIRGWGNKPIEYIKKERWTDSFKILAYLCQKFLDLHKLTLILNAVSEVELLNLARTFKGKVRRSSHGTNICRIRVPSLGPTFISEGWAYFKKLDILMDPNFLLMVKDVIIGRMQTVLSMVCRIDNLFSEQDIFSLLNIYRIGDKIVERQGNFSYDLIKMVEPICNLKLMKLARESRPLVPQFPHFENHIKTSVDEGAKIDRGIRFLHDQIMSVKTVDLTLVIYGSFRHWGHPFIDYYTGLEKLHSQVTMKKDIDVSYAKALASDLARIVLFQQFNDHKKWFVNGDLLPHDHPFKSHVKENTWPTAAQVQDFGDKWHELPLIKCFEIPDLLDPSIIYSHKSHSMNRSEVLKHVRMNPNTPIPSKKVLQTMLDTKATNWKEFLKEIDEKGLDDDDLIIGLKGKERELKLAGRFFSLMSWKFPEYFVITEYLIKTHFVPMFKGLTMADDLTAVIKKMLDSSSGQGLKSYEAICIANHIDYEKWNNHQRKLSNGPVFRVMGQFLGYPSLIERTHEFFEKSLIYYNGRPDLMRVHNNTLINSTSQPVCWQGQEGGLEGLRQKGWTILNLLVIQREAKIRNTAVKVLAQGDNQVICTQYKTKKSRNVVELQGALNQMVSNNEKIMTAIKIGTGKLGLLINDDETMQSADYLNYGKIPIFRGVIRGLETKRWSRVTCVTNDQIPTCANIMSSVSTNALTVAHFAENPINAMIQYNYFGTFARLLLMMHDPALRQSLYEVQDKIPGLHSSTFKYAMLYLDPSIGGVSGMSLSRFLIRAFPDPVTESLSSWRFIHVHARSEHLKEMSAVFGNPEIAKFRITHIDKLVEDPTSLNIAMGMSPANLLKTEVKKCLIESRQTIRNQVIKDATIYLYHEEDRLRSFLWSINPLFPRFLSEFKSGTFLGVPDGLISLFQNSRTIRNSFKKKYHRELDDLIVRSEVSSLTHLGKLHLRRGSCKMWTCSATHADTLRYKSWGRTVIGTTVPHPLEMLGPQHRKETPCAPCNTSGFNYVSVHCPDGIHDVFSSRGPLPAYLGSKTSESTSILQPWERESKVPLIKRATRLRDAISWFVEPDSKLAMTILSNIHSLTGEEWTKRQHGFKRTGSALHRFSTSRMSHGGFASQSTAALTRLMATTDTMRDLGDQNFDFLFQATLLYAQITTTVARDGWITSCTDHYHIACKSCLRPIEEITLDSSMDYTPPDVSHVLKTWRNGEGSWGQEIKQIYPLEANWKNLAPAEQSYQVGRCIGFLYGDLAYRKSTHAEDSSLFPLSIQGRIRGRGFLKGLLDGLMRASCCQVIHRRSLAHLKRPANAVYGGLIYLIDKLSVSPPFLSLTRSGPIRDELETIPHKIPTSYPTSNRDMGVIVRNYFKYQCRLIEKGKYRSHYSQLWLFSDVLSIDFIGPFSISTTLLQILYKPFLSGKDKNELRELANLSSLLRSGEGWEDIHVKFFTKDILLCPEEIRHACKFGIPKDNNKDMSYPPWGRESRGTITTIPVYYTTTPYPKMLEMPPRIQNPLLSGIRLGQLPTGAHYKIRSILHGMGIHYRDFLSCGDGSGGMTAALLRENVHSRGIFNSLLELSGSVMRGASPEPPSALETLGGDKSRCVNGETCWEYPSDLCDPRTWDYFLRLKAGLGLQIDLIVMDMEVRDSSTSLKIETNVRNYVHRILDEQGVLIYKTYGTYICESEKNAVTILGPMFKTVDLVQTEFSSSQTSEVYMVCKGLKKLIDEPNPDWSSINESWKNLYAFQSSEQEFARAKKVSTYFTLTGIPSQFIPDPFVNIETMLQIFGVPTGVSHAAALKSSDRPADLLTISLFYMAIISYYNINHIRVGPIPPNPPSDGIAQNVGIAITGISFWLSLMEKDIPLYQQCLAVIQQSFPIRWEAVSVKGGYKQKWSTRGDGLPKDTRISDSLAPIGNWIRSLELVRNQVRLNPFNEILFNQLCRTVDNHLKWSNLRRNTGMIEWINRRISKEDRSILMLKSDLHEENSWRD

AACAG
activity (% 7mGp of released cap): 97

From patent publication US8034355
